The results in this text go back to IntAct's records for PubMed 12393858.

The target of this test is ipp2_human PPP1R2 (UniProt P41236).
ipp2_human PPP1R2, sequence (P41236 whole entry): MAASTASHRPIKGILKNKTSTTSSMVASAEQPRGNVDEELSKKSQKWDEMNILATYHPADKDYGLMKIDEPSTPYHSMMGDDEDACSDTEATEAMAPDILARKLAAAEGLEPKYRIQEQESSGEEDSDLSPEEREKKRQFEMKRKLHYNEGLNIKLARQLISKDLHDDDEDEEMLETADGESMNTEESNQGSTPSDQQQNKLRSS

Turning to “Serine/threonine-protein kinase LMTK2 (Homo sapiens), Q8IWU2 V1356A;F1358A”, the “effect of a mutation on the interaction” value is “disrupting interaction”.
